Laboratory results from patent US8497352B2, “Use of Wnt5-α peptide derivates for the treatment of melanoma and gastric cancer” (Wntresearch AB, priority 2008, dated 2013).

Tests used:
A2058 melanoma cells = assay: BD Matrigel invasion chamber assay, A2058 cells; format: cell-based, human; settings: 0.2 μg/ml Wnt-5a, 24 hours
Description: Cell invasion was analyzed using the BD Matrigel™ invasion chamber assay (BD Biosciences, Bedford, Mass.). Prior to the initiation of each experiment, the cells were detached with Versene and re-suspended as single cells in serum-free RPMI medium. As indicated, cells were pre-incubated with the Box5 peptide (100 μM) or control solvent for 40 min with continuous agitation. An aliquot of the cell suspension containing 25,000 cells and 100 μM Box5 or control solvent was then added to the upper transwell chamber, and the lower chamber was filled with serum-containing (10%) medium. The invasion chambers were shaken horizontally for 5 min to ensure even distribution of the cells in suspension and subsequently across the membrane surface. The cells were allowed to invade for the periods of time indicated at 37° C. in a humidified atmosphere of 5% CO2. The medium was discarded and cells were fixed in 4% paraformaldehyde for 10 min. The cells were stained with 0.5% crystal violet in 20% methanol for 10 min and the non-invading cells on the inner side of the membrane were removed with a cotton-tipped applicator. The membrane was cut out of the chamber using a scalpel blade and the stained cells on the lower chamber side of the membrane were counted.

[1] = tested on: Wnt-5a-induced Ca^2+ signaling; assay: Determination of cytosolic free calcium levels (fura-2) in A2058 cells; format: cell-based, human; settings: 0.1 μg/ml Wnt-5a
Description: Cells grown on a glass cover slip were incubated with 4 μM fura-2/AM in culture medium for 30 minutes at 37° C. (Dejmek et al., 2006). After fura-2 loading of the cells, the cover slips were washed and mounted in a specially designed chamber to which was added a calcium-containing medium (136 mM NaCl, 4.7 mM KCl, 1.2 mM MgSO4, 1.1 mM CaCl2, 1.2 KH2PO4, 5 mM NaHCO3, 5.5 mM glucose and 20 mM Hepes, pH 7.4). The chamber was then placed in a system consisting of a NIKON Diaphot microscope connected to a Photon Technology International (PTI) imaging system. The cells were first allowed to rest for 10 minutes before any stimulation was performed. Fura-2 fluorescence was then recorded continuously from the cells before and after the stimulations with either Wnt-5a, endothelin-1 or charbacol (as indicated in the legend to FIG. 8) using an excitation wavelength rapidly alternating between 340 and 380 nm, while the emission wavelength was set at 510 nm. The fluorescence intensity ratios (340/380 nm) were subsequently calculated and analyzed using the PTI Image Master Software. Statistical analysis—The Student's t-test for unpaired samples was used to analyze differences in the experiments, where *=p<0.05, **=p<0.01, and ***=p<0.001

B1: Wnt-5a: human recombinant Wnt-5a protein from R&D Systems (protein, UniProt P41221 62-380, looked up)
Protein Wnt-5a: IIGAQPLCSQLAGLSQGQKKLCHLYQDHMQYIGEGAKTGIKECQYQFRHRRWNCSTVDNTSVFGRVMQIGSRETAFTYAVSAAGVVNAMSRACREGELSTCGCSRAARPKDLPRDWLWGGCGDNIDYGYRFAKEFVDARERERIHAKGSYESARILMNLHNNEAGRRTVYNLADVACKCHGVSGSCSLKTCWLQLADFRKVGDALKEKYDSAAAMRLNSRGKLVQVNSRFNSPTTQDLVYIDPSPDYCVRNESTGSLGTQGRLCNKTSEGMDGCELMCCGRGYDQFKTVQTERCHCKFHWCCYVKCKKCTEIVDQFVCK
Effect on invasion of A2058 cells (A2058 melanoma cells): stimulate
Cytosolic Ca^2+ signal in A2058 cells [1]: triggers a rapid cytosolic Ca^2+ signal
